Results from publication PMC2735845 (Journal of molecular biology, 2009).

Key:
[1] = target: T1, E. coli single-stranded DNA-binding protein (SSB), wild type (E. coli, UniProt P0AGE0 1-178); assay: cell-based or functional assay
[2] = target: T1, E. coli single-stranded DNA-binding …; assay: ammonium sulfate co-precipitation

Row | Binder | SSB binding in solution relative to wild type [2] [%] | also measured
1 | E. coli RecQ (wild type, full-length, hexahistidine-tagged) (enzyme) not shown | – | Fold stimulation of RecQ helicase activity by SSB [1]: 9.7 fold
2 | E. coli RecQ Q428A (enzyme) not shown | ~3 | –
3 | E. coli RecQ R448A (enzyme) not shown | – | co-precipitation with SSB relative to wild-type RecQ [2]: ~80%
4 | E. coli RecQ S421A (enzyme) not shown | ~40 | –
